Measured values taken from patent US9217139B2, “Extracellularly secreted nuclease” (JAPAN AGENCY FOR MARINE-EARTH SCIENCE AND TECHNOLOGY, priority 2010, dated 2015).

B1: NucL: nucleolytic enzyme of about 66.5 kDa secreted by Streptomyces sp. MBE174; SEQ ID NO. 4 (protein)
chain: MASQSVTRLAALTVAATCSAASVVVLGPPAHADSVRIHDIQGTTRISPYAGRQVADVPGVVTGVRDHGSSRGFWFQDPRPDDDPATSEGVFVFTGSAPGVEAGDAVTVSGTVSEFVPGGTASGNQSLTEITRPTVTVVSRGNPVPDPVVVSARSVPHAYAPAGDAAANGSVNALPLRPDRYALDYYESLEGMNVQVADARVVGATDPYTELWVTVKPGENASPRGGTVYGSRDAQNTGRLQIQTLGVPAGFPAADVGDTLAGATTGPLDYNQFGGYTLVARSLGTLTAGGLARETTREQHRDELSVATYNVENLDPSDGTFAAHAEAIVRNLRSPDIVSLEEIQDDNGATDDGTVTAGVTVGKLIDAVVAAGGPRYDWRSVDPVDKADGGQPGGNIRQVFLFDPRRVSFADRPGGDAVTATGVVKVRGKAALTHSPGRVDPANPAWLNSRKPLAGEFSFRGRTVFVIANHFASKGGDQGLTSQYQPPARSSETQRHLQATAVNTFVKQILAVQKNADVIALGDINDFEFSGTTERLEAGGALWSAVRSLPPGERYSYVYQGNSQVLDQILVSPSIRRGHLSYDSVHINAEFHDQISDHDPQVLRYRP
modifications: Streptmyces sp. MBE174
B2: NucS: low-molecular-weight nucleolytic enzyme, about 17 to 21 kDa, secreted by Streptomyces sp. MBE174; SEQ ID NO. 3 (protein)
chain: MPKLYARRRFAVLAALTGLIASAGLFHGPAASAALPTPVSAATARGYLASLKVAPENRTGYKRDLFPHWITQSGTCNTRETVLKRDGTNVVTDAACAATSGSWYSPFDGATWTAASDVDIDHLVPLAEAWDSGASAWTTAQRQAFANDLTRPQLLAVTDTVNQSKGDKDPAEWMPPRAAYHCTYVRAWVQVKYYYGLSVDTAEKTALTNRLAGC
modifications: Streptmyces sp. MBE174

What was measured:
[1] = system: circular DNA (pUC18 plasmid); assay: reaction styles in initial stage of degradation of circular DNA; assay type: biochemical
Procedure: According to the standard specific activity measurement method, reaction styles in an initial stage of degradation reaction for circular DNA (pUC18 plasmid) of NucS and NucL were analyzed (referring to FIGS. 14 and 15). […] The degradation of circular plasmid DNA executed by the single strand-specific nucleolytic enzyme is considered to proceed as the molecular weight degreases due to accumulation of endo-type cleavage of single strands.

[2] = effects of temperature on enzyme activity; assay type: biochemical; conditions: 15 minutes, 20 mM Tris/HCl pH 8.5, 1 mM MgCl2, 1 mM CaCl2
Procedure: Under each temperature condition, the nucleic-acid degradation activity was measured for 15 minutes in 20 mM of Tris/HCl at pH 8.5 that contained 1 mM of MgCl2 and 1 mM of CaCl2.

[3] = system: Deoxyribonucleic acid sodium salt from salmon testes; assay: effects of phosphate on enzyme activity; assay type: biochemical
Procedure: Effects of phosphate on NucS and NucL were examined. In 0 to 40 mM of potassium phosphate buffer at pH 8.5 that contained 1 mM of MgCl2 and 1 mM of CaCl2, the nucleic-acid degradation activity was measured at 25 degrees Celsius for 15 minutes by using, as substrate, Deoxyribonucleic acid sodium salt from salmon testes 0.4 mg/mL (manufactured by Sigma-Aldrich; Cat no. D1626-1G). […] Meanwhile, compared with NucS, NucL was excellent in resistance to phosphate. NucL could maintain 50 percent of activity even in the presence of 10 mM of potassium phosphate (referring to FIG. 11).

[4] = isoelectric point by Novex IEF pH-3-10 gel; assay type: physicochemical
Procedure: The molecular weight was measured by gel filtration chromatography with the use of Superdex G75 (manufactured by GE Healthcare). An elution position corresponding to a molecular weight of about 16 kDa was confirmed as a peak top from a column. Since the value was much coincident with a molecular weight (about 17 to 21 kDa) of an enzyme produced on SDS-PAGE, it can be determined that NucS exists as monomer. The isoelectric point was measured by using Novex (Registered Trademark) IEF pH-3-10 gel (manufactured by Invitrogen); and pl was 10.
(§1) The specific activity of NucL was 5.6×10^4 U/mg-protein at 37 degrees Celsius in 20 mM of Tris/HCl at pH 8.5 that contains 1 mM of MgCl2 and 1 mM of CaCl2. The isoelectric point was measured by using Novex (Registered Trademark) IEF pH-3-10 gel (manufactured by Invitrogen); and then pl was 7.0. Then, it was determined that a N-terminal amino acid sequence of the purified enzyme was DSVRIHDIQGTTR. The sequence matched 12 out of 13 amino acids of putative protein (putative secreted hydrolase) coded on a genome of Streptomyces scabiei 87.22, and of putative protein (large secreted protein) coded on a genome of S. avermitilis MA-4680.

[5] = system: RNA (mRNA derived from yeast); assay: degrading activity for RNA; assay type: biochemical
[6] = thermal stability test (residual activity); assay type: biochemical; conditions: heat treatment 30 minutes, 20 mM Tris/HCl pH 8.5, 1 mM MgCl2, 1 mM CaCl2; ice bath = 100 percent
Procedure: After heat treatment was conducted for 30 minutes at each temperature in 20 mM of Tris/HCl at pH 8.5 that contained 1 mM of MgCl2 and 1 mM of CaCl2, the residual activity was measured (referring to FIG. 6). An activity of an enzyme stored in an ice bath was regarded as 100 percent.

[7] = system: linear double-stranded DNA (pUC18 plasmid cut by BamHI, SacI, SmaI); assay: degradation pattern of linear double-stranded DNA; assay type: biochemical; conditions: for degradation of linear double-stranded DNA regardless of the structure of DNA strand ends: 5'-protruding, 3'-protruding and flush ends; for efficiency of degradation of linear double-stranded DNA compared with circular DNA: comparison of FIGS. 12, 16, 17
Text: With the use of the standard specific activity measurement method, as well as of a substrate obtained by making circular DNA (pUC18 plasmid) linear by using restriction nucleases BamHI (which generates a 5′-protruding end), SacI (which generates a 3′-protruding end), and SmaI (which generates a flush end), a degradation reaction took place with the use of NucS and NucL (referring to FIGS. 16 and 17).
Given the above results, it is presumed that NucL has a reaction style called an endo-exo type.

[8] = phosphatase activity test; assay type: biochemical; conditions: 100 mM Tris/HCl pH 8.5, 1 mM MgCl2, 1 mM CaCl2, 1 percent glycerol, 25 degrees Celsius
Procedure: (§2) Bis(p-nitrophenyl)phosphate and p-nitrophenylphosphate were used as substrate. The method of Tomoyeda et al. (referring to Archives of biochemistry and biophysics. 131(1), 191-202, 1969; the contents of the document are incorporated herein by reference) was used. In 100 mM of Tris/HCl at pH 8.5 that contained 1 mM of MgCl2, 1 mM of CaCl2, and 1 percent of glycerol, with the use of a reaction solution that contained 0.2 percent of the above substrate, the phosphodiesterase activity and phosphatase activity of both enzymes were measured at 25 degrees Celsius.

Salmon sperm DNA = assay: standard specific activity measurement method (increase of absorbancy at 260 nm); assay type: biochemical; conditions: 37 degrees Celsius; for specific activity: purified enzyme, 30 minutes, 20 mM Tris/HCl pH 8.5, 1 mM MgCl2, 1 mM CaCl2
Procedure: The specific activity of NucS was measured at 37 degrees Celsius in 20 mM of Tris/HCl at pH 8.5 that contains 1 mM of MgCl2 and 1 mM of CaCl2 (a measurement method under the condition described here is also referred to as a standard specific activity measurement method, hereinafter); the specific activity was 3.6×10^6 U/mg-protein, which was a very high level of specific activity. In this case, 1 U represents an amount of enzymes necessary to increase the absorbancy of 260 nm by one for 30 minutes when the enzymes works on the following as substrate: Salmon sperm DNA 1 mg/mL (manufactured by Invitrogen; Cat no. 15632-011). As a reference, as for NucS, when the specific activity of Benzonase (Registered Trademark), which was a commercially available nucleolytic enzyme that had the highest specific activity among those listed in a brochure, was measured under the conditions described in the brochure (37 degrees Celsius) with the use of the same substrate; the specific activity was 9.4×10^5 U/mg-protein. As a result, it became clear that the specific activity of NucS is about 3.8 times higher than that of Benzonase.
as §1

[9] = phosphodiesterase activity test; assay type: biochemical; conditions: 100 mM Tris/HCl pH 8.5, 1 mM MgCl2, 1 mM CaCl2, 1 percent glycerol, 25 degrees Celsius
Procedure: as §2

Molecule	reaction style in initial stage of degradation of circular DNA [1]	optimum reaction temperature [2]	activity maintained in the presence of phosphate ([3]; 10 mM of potassium phosphate, pH 8.5, 25 degrees Celsius) [%]	isoelectric point (pl) [4]	RNA degrading activity [5]	temperature until which the enzyme remained stable [6] [degrees Celsius]	reaction style presumed from linear DNA degradation [7]	degradation of linear double-stranded DNA regardless of the structure of DNA strand ends [7]	efficiency of degradation of linear double-stranded DNA compared with circular DNA [7]	phosphatase activity [8]	specific activity (Salmon sperm DNA)	phosphodiesterase activity [9]	phosphate concentration that made the enzyme inactive ([3]; potassium phosphate buffer pH 8.5, 1 mM MgCl2, 1 mM CaCl2, 25 degrees Celsius) [mM]	specific activity of NucS relative to Benzonase (Salmon sperm DNA; same substrate)
B1	reaction pattern similar to a single strand-specific, endo-type nucleolytic enzyme	around 45 degrees Celsius	50	7.0	did not show RNA degrading activity	≤ 35	endo-exo type	can degrade	more efficiently	has	5.6×10^4 U/mg-protein	has	–	–
B2	degradation activity of an endo-type style	around 55 degrees Celsius	–	10	showed RNA degrading activity	≤ 45	–	can degrade	at the same level of efficiency	does not have	3.6×10^6 U/mg-protein	does not have	≥ 0.5	about 3.8 times
